Source: the DeepSol protein solubility set

Test: soluble on expression in E. coli; label from the status in PepcDB or PDB records

| Sequence | soluble on expression in E. coli |
| --- | --- |
| MLEQIQQALAGDQEQFQALYGQYQPVIYKCMKKYYLKDYDTEDWLQEGRIVFFRTLERFDSEKQASLGKFFKRNFENHVHSLIRHQCAYKRRTDTLSISLEQRLESAGEELVDYLGTAATDPLGQLMIQEKLAAFPTRLSSLEQQILNAYLKGYTLEEIAKVRGGTFSAVRSAYDRAKAKMKYTLENE | not soluble |
| MLEWRGDKYVNGYYPVSSSAPDLLLECISNESKKYLPGELIAVECKWRSTVNFFIPKSDAEKYEKYFRTNKTRYRVKHLFYLFGFGWSDNAPESVYIIPSTALYEYDENTFEITFPNGELIKDKKIRMEDYKMKFKNLIYTVPENRKHLSYQTKSFDTKKKDEPMQR | not soluble |
| MLFLDKNLELNDTELDIYNYIVANLEKVVYMRIRDLATEAHVSTTTILRFCRKFGCNGFSEFRVKLQLYLEEQKLAQIDMADETTYIDFLKRTAQPEFKAQIQNAVEILRDRELVLFAGVGSSGVIAEYGAIYFSSLFTLALHIEDPLNHPFYHLSSKLSDKICMIAISVEGENEDIIRYIHQLKAQNCKVISITNSAKSTIARLSDANIAYYINKEMYQEANITSQLPALYTIENIAREIRTQIDKEKM | not soluble |
| MLGAIIGDLVAWTWERDQSLFYQRLIAPKANISEVGLAVLGVTEPMLRGSSEVEWESLYLHIREIIQRDRITDISPDFNDWTEAGHQAVIPKEVKSVMHLAVSIVGGWCDAPLETTLAYSRRFHGGKEEYYLTQIAEIIYRLRQGATKQEAMEDIHYIKNWKPQGKVSLLGYAHHAWQCFLQSWDFTSALHNAMRCSYGDKHLLGALTGAIAEAMYSCEYGFIKEKYGKGSDTQFMLSLPKELSGLYRVELGLIESNKELLRTFFPKNRALTNVEVWQWFDLPNIVAHKPLSEREYQRIRLSHDTGWDARYGIYWDDGWYYVYCSGFLLNRFRVEEMQDHTYRITRIQYCTQHEEGKAYNALIKALSLDGLDMSAYSQYKD | not soluble |
| MLGGDWTDGTMTDFKWRHFQGDVILWAVRWYCRYPISYRDLEEMLAERGISVDHTTIYRWVQCYAPEMEKRLRWFWRRGFDPSWRLDETYVKVRGKWTYLYRAVDKRGDTIDFYLSPTRSAKAAKRFLGKALRGLKHWEKPATLNTDKAPSYGAAITELKREGKLDRETAHRQVKYLNNVVEADHGKLKILIKPVRGFKSIPTAYATIKGFEVMRALRKGQARPWCLQPGIRGEVRLVERAFGIGPSALTEAMGMLNHHFAAAA | not soluble |
| MLGRGEGMRLEEARIAVDEALSAYRRCVEAEVEEYGPEYERVTFMEYEAPAPDPCAEAFLRLVEAVRAYEAAGGSREDLDLGRERKRVYEALDKG | soluble |
| MLHFIDSSESEDDLDELPRHLPPVIRRLAPLRHATSQYNLRSTGSTSSDSSTASENDKCSDFSSLKSRRASCIELNKEDEFKVMAADKLLMAMENMKHATSSQAIRWRTTSTESLPGIIKSNRRHSKGPLELIQGLMAKKAAVGRPAKFKNLGVVGPPTLISSTVSLHEISGFVRRDRFWGAETESLFSQFEV | not soluble |
| MLIDKTIILSVAFFTSSVFGQTSDKDFLKKPHVLPSAEAAYHAVYHELDSVKSGNRDEKVFGQLYVALIEDQFTFGGDLSTWPDSAFQKGDRGCKPFMAANLHNLCNNEYFLVHQDMIKLVKTVFERKNQADPSFDTICLANNGFVVSDDPENHLVYRYKHRIPMTYKATSNDQKCFGTYDTRTDTFTCMRYDASTKKMSPFELQNFLWKENTGTFHLGNGNAEVFCKKPFYTNK | not soluble |
| MLIHYIDIAKRNFVIAVSSLSKTKTETNNPKGIAHTIEYLKKHKVALVVTESTGGLEIPAAKAIHRAGIAVIIANPRQTHQFAQSQSLTKTDAKDAKMPAFFAQMKAQKEDWQTMPYHPPTEAEEVLEALVNRRNQSADMRTAEKNRLHQVHETQVGSVKQLIAHFDRLIDESDKQIDDHTHTHFDGKAQVAEQIKGIGSITTATLMAMLPELGRLSHKRIASLVGIAPHPRKSGEAKFKSRCFGGRSAVLKALYMATVAATRFEPLIRDFHQRPLSEGKPYKVAVTACMRKLLETFAKFLSLTTTEIPTQVFGCFRPKYRLILPKHPLNPPRTPDNQASGLPFRRQRAHLACWRLSTGSNTSPSDGFAHSL | not soluble |
| MLILGLVISCGGSKDITLPNKNVKIEGDVLTFKGKPFTGNIKMNLADKMDGYAGAMSFKDGHLDGLTDLKNDKENQQVKFTVVDGKFDGELIMKDAKQRTDIVLDIKNGAIVKYLADVQGAYKYDLSFVDNLANGTMEAQGQKFEFKDGIAKGPQGQELKLTLDPESGDLTMEAMVNGKVAGKQTIPNVLTPQYLETFIFRAVTMTNR | not soluble |
| MLILVSPAKTLDFEQPPLTQIHTRPDFLAQSQELIQVCQQLTPSDIATLMKVSDSIAGLNAARFGEWKPDYSIDNAKQAIFAFRGDVYTGFDADTLTAAQLERTQSQLRILSGLYGLLRPLDLILPYRLEMGTALTNQKGKNLYEFWGNTLTDAVNSAVAAQGDGIIINLASNEYFKAIKPKFLNGQLITPVFKDFKNGQYKVISFFAKRARGMMARYIIDQQVSSIDGLKAFEVDGYYYSEELSKPNEPTFLREAQ | soluble |
| MLIPAQENNVSLTATPSRIGQIMKYGFPGLDHVRSHSDYVLSYDRRNRVPHWVFEHLTAESVAKNDAVDRSKCDFKQDESIHPFFRSQNTDYRRSGYDRGHMAAAGNHRLHQKHCDETFYLSNMAPQVGQGFNRDAWNTLEAHVRRLTKTYSNVYVCTGPLYLPHKEDDGKSYVKYEVIGANTVAVPTHFYKVIVGESADHKLHMESYVMPNQVISNDTPISVFQVPPESVERSAGLLFFDQINRKQLTTINGKKVAAALEHHHHHH | soluble |
| MLIRQVTMEDLEDIIRIENDNFSAEEAATSQALKERIEVIADTFLVAEQDGQIAGYVEGPVINSRYLTDDLFHKVKPNQEKSGYIAVTSLSVDKAFQKQGVGTTLLAALKDLTVAQNRLGIHLTCHDYLISYYEMNGFSNEGLSESTHGGTVWYNMIWENPKI | not soluble |
| MLIRSETPADQRAIFDVTQAAFRGHPHSEQTEAYIVQALRAAGALTLSLVAELDARVVGHAAFSPVQISDGSPSWFGLGPVSVDPAHQGRGIGTALIEHGLARLQARGAAGCVLVGEPAYYGRFGFRPEPGLVLPDMPPTHFLALTFGAPARGTVTYHPGFAARDA | not soluble |
| MLISKHEERVKSILSARMENGNLRSRENTQVEFKQSFNKGNIAIYAKTMAAFSNNSGGYIIFGIKDSPRSIIGLQNSNFENIQQEDLTDSINNLFSPSINELGSFILKEKEINSNGDVIIVQKIIGIYTEESNIKPVIAQKNNSSEKIVNGDIFYRYRARTEKIKYAEMEQIINCRMKQERDSLFKVFEFIRNNGATNLGIVDYNNGKLSTPYGVDVVLEKNLIAKLLKKAKFIKEGSFSENEGIPVIKVTGNINLAEEVPVPLENLDETYPYIQKQLAEKLNITPQKLYALIYFKMKESKKYHLEITTSKTNKTHKFSKFALLFLKEKIIELDENKNELEHHHHHH | not soluble |
| MLISKVIKKQFAQETIENVHIAKGTAMFQGVRLTVRCFVIDGVLIDTGAKSMENEFTSFFQQQDIDQVVITHFHEDHTGCAAFLQRKMGLPIYMNELMIHYCQQKADYPLYRKVFWGKRDPFTAKPIGATFSSRSATWDVIPTPGHSIDHVAFLNRETGQLFSGDLYCQEKTKVILREENIPAIITSLQHVLTYDFGDVFCAHAGYLPNGREALQRKLDYLLELQGTIIDLYEKGTPPKQIQALLFPKKYPIVFFSGGEWDSLHIIRSVIQEYETKQAG | not soluble |
